Test [1] addresses T1, rat CNTF receptor on rat superior cervical ganglia (SCG) neurons (rat, UniProt Q08406 23-342).
T1 construct: whole, on cells; The neurons carry the endogenous receptor, and the other receptor components may also be present; also called rat receptor
T1 sequence (looked up): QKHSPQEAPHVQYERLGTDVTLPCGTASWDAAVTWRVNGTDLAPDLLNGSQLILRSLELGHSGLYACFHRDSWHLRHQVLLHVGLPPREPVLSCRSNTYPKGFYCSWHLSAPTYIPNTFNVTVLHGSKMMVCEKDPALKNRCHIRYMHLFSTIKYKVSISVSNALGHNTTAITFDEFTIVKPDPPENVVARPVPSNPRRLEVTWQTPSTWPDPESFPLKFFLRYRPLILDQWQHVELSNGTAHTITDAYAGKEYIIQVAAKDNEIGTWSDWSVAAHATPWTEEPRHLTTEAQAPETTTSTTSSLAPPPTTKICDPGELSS
In words: competition with 125I-rat CNTF on rat SCG neurons. How it is done:
Growth medium consisted of Ham's nutrient mixture F12 with 10% heat-inactivated fetal bovine serum (Hyclone), nerve growth factor (NGF) (100 ng/ml), penicillin (50 U/ml) and streptomycin (50 µg/ml). Cultures were maintained at 37° C. in a humidified 95% air/5% CO_2 atmosphere. Ganglion non-neuronal cells were eliminated by treatment with araC (10 µM) on days 1 and 3 of culture. Cultures were fed 3 times/week and were routinely used for binding assays within 2 weeks.
(§1) Binding was performed directly on cell monolayers. Cells in culture wells were washed once with assay buffer consisting of phosphate buffered saline (PBS; pH 7.4), 0.1 mM bacitracin, 1 mM PMSF, 1 µg/ml leupeptin, and 1 mg/ml BSA. […] Non-specific binding was determined in the presence of 1,000-fold excess of unlabelled CNTF. Specific binding towards MG87/CNTFR was 80–90%. Data were analyzed using the […] program (ISI, Philadelphia, Pa.).

Test [2] addresses T2, human CNTF receptor alpha-component on MG87/CNTFR fibroblasts (human, UniProt P26992 23-342).
T2 construct: whole, on cells; Mouse fibroblast cell line transfected with the human CNTF alpha receptor gene; also called CNTFRalpha; MG87/huCNTFR
T2 sequence (looked up): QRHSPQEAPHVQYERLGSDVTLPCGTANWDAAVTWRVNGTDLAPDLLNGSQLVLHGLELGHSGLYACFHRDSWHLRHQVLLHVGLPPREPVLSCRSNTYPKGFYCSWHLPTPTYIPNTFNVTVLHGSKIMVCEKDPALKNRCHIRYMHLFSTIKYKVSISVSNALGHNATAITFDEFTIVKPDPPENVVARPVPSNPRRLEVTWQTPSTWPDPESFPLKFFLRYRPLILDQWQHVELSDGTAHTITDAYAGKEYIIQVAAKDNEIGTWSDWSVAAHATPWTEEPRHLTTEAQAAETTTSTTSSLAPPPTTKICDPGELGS
In words: competition with 125I-rat CNTF on MG87/CNTFR cells. How it is done:
as §1

Test [3] addresses T2, human CNTF receptor alpha-component on …. In words: competition binding experiments, data not shown; cells not given.

B1: recombinant human CNTF (ligand)
chain: MAFTEHSPLTPHRRDLCSRSIWLARKIRSDLTALTESYVKHQGLNKNINLDSADGMPVASTDQWSELTEAERLQENLQAYRTFHVLLARLLEDQQVHFTPTEGDFHQAIHTLLLQVAAFAYQIEELMILLEYKIPRNEADGMPINVGDGGLFEKKLWGLKVLQELSQWTVRSIHDLRFISSHQTGIPARGSHYIANNKKM
notes: also called rHCNTF; hCNTF
For the molecule B1, in test [1], the IC50 was 25 nM and the “fold less potent than unlabelled rat CNTF” value is 90 fold. Moreover, in test [2], the IC50 amounted to 30 nM and the “fold less potent than rat CNTF” value is 12 fold.

B2: RPN228 (ligand)
chain: MAFTEHSPLTPHRRDLCSRSIWLARKIRSDLTALTESYVKHQGLNKNINLDSADGMPVASTDRWSELTEAERLQENLQAYRTFHVLLARLLEDQQVHFTPTEGDFHQAIHTLLLQVAAFAYQIEELMILLEYKIPRNEADGMPINVGDGGLFEKKLWGLKVLQELSQWTVRSIHDLRFISSHQTGIPARGSHYIANNKKM
notes: Expressed in E. coli; also called RG228; rHCNTF,63QR
With B2, the IC50 in test [2] worked out at 5.6 nM. In other words, the single-digit nanomolar range.

B3: RPN222 (ligand)
chain: MAFTEHSPLTPHRRDLCSRSIWLARKIRSDLTALTESYVKHQGLNKNINLDSVDGMPVASTDQWSEMTEAERLQENLQAYRTFHVLLARLLEDQQVHFTPTEGDFHQAIHTLLLQVAAFAYQIEELMILLEYKIPRNEADGMPINVGDGGLFEKKLWGLKVLQELSQWTVRSIHDLRFISSHQTGIPARGSHYIANNKKM
notes: Chimeric CNTF
Regarding B3, in test [3], the binding result is on record as “binds”.

B4: RPN218 (ligand)
chain: MAFTEHSPLTPHRRDLCSRSIWLARKIRSDLTALMESYVKHQGLNKNINLDSVDGVPVASTDRWSEMTEAERLQENLQAYRTFHVLLARLLEDQQVHFTPTEGDFHQAIHTLLLQVAAFAYQIEELMILLEYKIPRNEADGMPINVGDGGLFEKKLWGLKVLQELSQWTVRSIHDLRFISSHQTGIPARGSHYIANNKKM
notes: Chimeric CNTF
In the case of B4, in test [3], the binding result was “binds”.

B5: RPN219 (ligand)
chain: MAFTEHSPLTPHRRDLCSRSIWLARKIRSDLTALTESYVKHQGLNKNINLDSVDGVPVASTDRWSEMTEAERLQENLQAYRTFHVLLARLLEDQQVHFTPTEGDFHQAIHTLLLQVAAFAYQIEELMILLEYKIPRNEADGMPINVGDGGLFEKKLWGLKVLQELSQWTVRSIHDLRFISSHQTGIPARGSHYIANNKKM
notes: Expressed in E. coli; also called CNTF RPN219
B5 gave an IC50 in test [1] of 0.3 nM.

B6: RPN187 (ligand)
chain: MAFAEQTPLTLHRRDLCSRSIWLARKIRSDLTALMESYVKHQGLNKNINLDSADGMPVASTDQWSELTEAERLQENLQAYRTFHVLLARLLEDQQVHFTPTEGDFHQAIHTLLLQVAAFAYQIEELMILLEYKIPRNEADGMPINVGDGGLFEKKLWGLKVLQELSQWTVRSIHDLRFISSHQTGIPARGSHYIANNKKM
notes: Chimeric CNTF
As for B6, in test [3], the binding result is recorded as “binds”.

B7: RPN192 (ligand)
chain: MAFTEHSPLTPHRRDLCSRSIWLARKIRSDLTALTESYVKHQGLNKNINLDSADGMPVASTDQWSELTEAERLQENLQAYRTFQGMLTKLLEDQRVHFTPTEGDFHQAIHTLMLQVSAFAYQLEELMVLLEQKIPENEADGMPATVGDGGLFEKKLWGLKVLQELSQWTVRSIHDLRFISSHQTGIPARGSHYIANNKKM
notes: Chimeric CNTF
In the case of B7, the binding result in test [3] was “binds”.

B8: recombinant rat CNTF (ligand)
chain: MAFAEQTPLTLHRRDLCSRSIWLARKIRSDLTALMESYVKHQGLNKNINLDSVDGVPVASTDRWSEMTEAERLQENLQAYRTFQGMLTKLLEDQRVHFTPTEGDFHQAIHTLMLQVSAFAYQLEELMVLLEQKIPENEADGMPATVGDGGLFEKKLWGLKVLQELSQWTVRSIHDLRVISSHQMGISALESHYGAKDKQM
notes: also called unlabelled rat CNTF
On to B8, for which the results for the IC50 in test [1] and in test [2] were 0.28 nM and 2.8 nM, respectively.

B9: RPN186 (ligand)
chain: MAFTEHSPLTPHRRDLCSRSIWLARKIRSDLTALTESYVKHQGLNKNINLDSVDGVPVASTDRWSEMTEAERLQENLQAYRTFQGMLTKLLEDQRVHFTPTEGDFHQAIHTLMLQVSAFAYQLEELMVLLEQKIPENEADGMPATVGDGGLFEKKLWGLKVLQELSQWTVRSIHDLRVISSHQMGISALESHYGAKDKQM
notes: Chimeric CNTF
As to B9, the binding result in test [3] was “binds”.

B10: RPN189 (ligand)
chain: MAFAEQTPLTLHRRDLCSRSIWLARKIRSDLTALMESYVKHQGLNKNINLDSVDGVPVASTDRWSEMTEAERLQENLQAYRTFQGMLTKLLEDQRVHFTPTEGDFHQAIHTLMLQVSAFAYQLEELMVLLEQKIPENEADGMPATVGDGGLFEKKLWGLKVLQELSQWTVRSIHDLRFISSHQTGIPARGSHYIANNKKM
notes: Chimeric CNTF
For the molecule B10, in test [3], the binding result is recorded as “binds”.
